Measured values reported in US9932621B2, “Modulators for Sirt5 and assays for screening same” (CORNELL UNIVERSITY, priority 2010, dated 2018).
Entries after “also recorded” stand apart in the source; their conditions may differ. *1 amine or outer side, *2 acyl side, *3 side chain or, on linkers, in order; H or OH if unused. Where no end group is shown, it is not given here. The star is where a group is joined. Malonyl = O=C(CC(=O)[*:2])[*:1]; AMC = Cc1cc(=O)oc2cc(N*)ccc12; Suc = O=C(CCC(=O)[*:2])[*:1]

Columns and labels:
Sirt5 [1] = molecular target: T1, Sirt5 (Homo sapiens, UniProt Q9NXA8); test: Sirt5-catalyzed desuccinylation of AMC-succinyl peptides monitored by HPLC; format: biochemical; conditions: 2 hrs
T1 construct: made in house
T1 sequence (Q9NXA8 37-310): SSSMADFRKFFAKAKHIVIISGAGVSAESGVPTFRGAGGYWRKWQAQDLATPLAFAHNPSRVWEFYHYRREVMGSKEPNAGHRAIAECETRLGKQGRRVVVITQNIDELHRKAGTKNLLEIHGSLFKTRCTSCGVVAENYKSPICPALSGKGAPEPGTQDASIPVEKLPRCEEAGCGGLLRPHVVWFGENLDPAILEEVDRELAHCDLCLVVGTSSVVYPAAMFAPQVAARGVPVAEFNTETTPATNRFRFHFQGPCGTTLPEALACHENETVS
Method: […] The reactions were stopped with 200 mM HCl and 320 mM acetic acid, analyzed by HPLC with a reverse phase C18 column (250×4.6 mm, 90 A, 10 μm, GraceVydac, Southborough, Mass.), with a linear gradient of 0% to 20% B for 10 min (1 mL/min).

Sirt5 [2] = molecular target: T1, Sirt5; test: Sirt5 deacetylation, demalonylation, desuccinylation kinetics on WW-tagged peptides by HPLC; format: biochemical; conditions: peptides with two C-terminal tryptophan residues; for Km: read-out: Peptide Km
Method: (§1) For determination of kcat and Km, human Sirt1, Sirt2, Sirt3 and Sirt5 were measured by detecting the deacylated peptide from H3K9 acyl peptides using HPLC. Purified Sirtuin was incubated with 1.0 mM of NAD in 20 mM Tris-HCl buffer (pH 7.5) containing acyl peptides (0-750 μM) and 1 mM DTT in 60 μL reactions at 37° C. The reactions were stopped with 100 mM HCl and 160 mM acetic acid, analyzed by HPLC with a reverse phase C18 column (250×4.6 mm, 90 A, 10 μm, GraceVydac, Southborough, Mass.), with a linear gradient of 0% to 20% B for 10 min (1 mL/min). […] The kcat and Km values were obtained by curve-fitting the Vinitial/[E] versus [S] plot using KaleidaGraph. For Sirt5 R105M, the observed second order rate constant, kobs (rate/([Sirtuin][NAD])) was detected instead of kcat and Km because of the very weak deacylation activity. The experiments were done in duplicate.
(§2) For comparing the deacetylation, demalonylation and desuccinylation activities of Sirt5 on different peptide backbones (results shown in Table 2), histone H3, GDH and ACS2 peptides with two tryptophan residues at the C-terminal were used to allow better detection and quantification on HPLC. The determination of kcat and Km was carried out essentially the same as mentioned above with slight modifications. The reactions were quenched with 60 μL 10% TFA. The chromatography gradient was 0% to 50% B for 20 min (1 mL/min). The peptides were detected and quantified on the LC by the absorption at 280 nm.

Sirt5 [3] = molecular target: T1, Sirt5; test: Screening for Sirt5 inhibitors with ISGASE(SuK)-AMC in the fluorogenic assay; format: biochemical; conditions: compound 30 μM, ISGASE(SuK)-AMC 0.3 mM, Sirt5 1 μM, FIG. 13
Method: SirT5 (1 μM) was incubated with ISGASE(SuK)-AMC (SEQ ID NO:11) peptide (0.3 mM), NAD (0.5 mM) in Tris-HCl buffer (pH 7.4, 20 mM) with DTT (1 mM) in 60 μL reactions for 4 hours at 37° C. Then trypsin (1 μg) and CaCl2 (1 mM) were added and the reactions were incubated for 3 hours at 37° C. The reactions were the diluted with 50 μL water. The mixture (100 μL) was transferred to 96 well plate and the fluorescence was recorded by BIO-TEK® Synergy HT plate reader (Optics Position: Top, Sensitivity: 50, Excitation at the wavelength of 360 nm and Emission at the wavelength of 460 nm).
The procedure was the same as described above (Assaying Sirt5 activity on ISGASE(SuK)-AMC in the fluorogenic assay), except that different compounds (30 μM) were included in the reactions. In the desuccinylation step, Sirt5 was added last to initiate the desuccinylation reaction.

Sirt2 = molecular target: T2, Sirt2 (Homo sapiens, UniProt Q8IXJ6); test: Secondary screening using Sirt2 and ISGASE(AcK)-AMC fluorogenic assay; format: biochemical; conditions: inhibitor 30 μM, ISGASE(AcK)-AMC 0.3 mM, Sirt2 1 μM, FIG. 15
T2 construct: made in house
T2 sequence (Q8IXJ6 1-389): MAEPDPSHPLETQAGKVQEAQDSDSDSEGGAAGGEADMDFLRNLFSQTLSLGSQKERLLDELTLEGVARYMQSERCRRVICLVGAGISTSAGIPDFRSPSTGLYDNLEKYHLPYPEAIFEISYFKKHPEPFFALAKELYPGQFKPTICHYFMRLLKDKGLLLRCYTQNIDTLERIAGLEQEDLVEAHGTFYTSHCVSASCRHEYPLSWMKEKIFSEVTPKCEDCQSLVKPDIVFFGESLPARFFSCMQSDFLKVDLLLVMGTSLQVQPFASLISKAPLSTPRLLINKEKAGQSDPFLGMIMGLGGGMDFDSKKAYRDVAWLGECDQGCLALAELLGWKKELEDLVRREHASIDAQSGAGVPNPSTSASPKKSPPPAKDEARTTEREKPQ
Method: SirT2 (1 μM) was incubated with ISGASE(AcK)-AMC (SEQ ID NO:13) peptide (0.3 mM), inhibitors (30 μM), NAD (0.5 mM) in Tris-HCl buffer (pH 7.4, 20 mM) containing dithiothreitol (DTT, 1 mM) in a 60 μL reaction for 4 hours at 37° C. Then trypsin (1 μg) and CaCl2 (1 mM) were added and the reaction were incubated for 3 hours at 37° C. The reactions were diluted with 50 μL water. The mixture (100 μL) was transferred to 96 well plate and the fluorescence was recorded by BIO-TEK® Synergy HT (Optics Position: Top, Sensitivity: 50, Excitation at the wavelength of 360 nm and Emission at the wavelength of 460 nm).

[4] = substrate: C[C@H](NC(=O)[C@@H](NC(=O)[C@H](CCC(N)=O)NC(=O)[C@@H](N)CCCCN)[C@@H](C)O)C(=O)N[C@@H](CCCNC(=N)N)C(=O)N[C@@H](CCCCNC(=O)CC(=O)O)C(=O)N[C@@H](CO)C(=O)N[C@H](C(=O)NCC(=O)NCC(=O)N[C@@H](Cc1c[nH]c2ccccc12)C(=O)N[C@@H](Cc1c[nH]c2ccccc12)C(=O)O)[C@@H](C)O; test: Sirt5 deacetylation, demalonylation, desuccinylation kinetics on WW-tagged peptides by HPLC; format: biochemical, human; conditions: other: Sirt5, peptides with two C-terminal tryptophan residues, pH 7.5
Method: as §1, §2

[5] = substrate: C[C@H](NC(=O)[C@@H](NC(=O)[C@H](CCC(N)=O)NC(=O)[C@@H](N)CCCCN)[C@@H](C)O)C(=O)N[C@@H](CCCNC(=N)N)C(=O)N[C@@H](CCCCNC(=O)CCC(=O)O)C(=O)N[C@@H](CO)C(=O)N[C@H](C(=O)NCC(=O)NCC(=O)N[C@@H](Cc1c[nH]c2ccccc12)C(=O)N[C@@H](Cc1c[nH]c2ccccc12)C(=O)O)[C@@H](C)O; test: as above; format: biochemical, human; conditions: other: Sirt5, peptides with two C-terminal tryptophan residues, pH 7.5
Method: as §1, §2

Question: How did the succinyl peptide desuccinylated (Sirt5 [1]; 1 μM Sirt5, 300 μM peptide) turn out when ISGASE(SuK)-AMC (ISGASEK(Suc)-{AMC}) was run?
Answer: The succinyl peptide desuccinylated was 7.3%.

Question: And the succinyl peptide desuccinylated (Sirt5 [1]; 2 μM Sirt5, 300 μM peptide)?
Answer: The succinyl peptide desuccinylated was 17%.

Question: What about the succinyl peptide desuccinylated (Sirt5 [1]; 5 μM Sirt5, 300 μM peptide) of the same molecule?
Answer: Its succinyl peptide desuccinylated is 36%.

Question: For “GDH K503 (498-509 + WW) succinyl peptide: GDH K503 succinyl peptide (498-509) with two C-terminal tryptophan residues (SGASEK(Suc)DIVHSGWW)”, which kcat (Sirt5 [2]) is on record?
Answer: The kcat was 0.028 ± 0.002 s⁻¹.

Question: What about the Km (Sirt5 [2]) of the same molecule?
Answer: Its Km is 14 ± 4 µM.

Question: With “KQTARK(Ac)STGGWW [H3 K9 (4-13 + WW) acetyl peptide]” as the molecule, how does the Km (Sirt5 [2]) read?
Answer: Its Km is greater than 750 µM.

Question: Which results are given for Cc1ccc(C(=O)Nc2ccc(S(=O)(=O)O)c3cc(S(=O)(=O)O)cc(S(=O)(=O)O)c23)cc1NC(=O)c1cccc(NC(=O)Nc2cccc(C(=O)Nc3cc(C(=O)Nc4ccc(S(=O)(=O)O)c5cc(S(=O)(=O)O)cc(S(=O)(=O)O)c45)ccc3C)c2)c1 [suramin]?
Answer: inhibition of Sirt5 (fluorescence) in fluorogenic assay (Sirt5 [3]): close to background level; also recorded: significant inhibition; fluorescence produced by Sirt2 in fluorogenic assay (Sirt2): decreased the fluorescence to almost background level

Question: For “GDH K503 (498-509 + WW) acetyl peptide: GDH K503 acetyl peptide (498-509) with two C-terminal tryptophan residues (SGASEK(Ac)DIVHSGWW)”, which Km (Sirt5 [2]) is on record?
Answer: Its Km is greater than 750 µM.

Question: What does the source list for “GDH K503 (498-509 + WW) malonyl peptide: GDH K503 malonyl peptide (498-509) with two C-terminal tryptophan residues (SGASEK(Malonyl)DIVHSGWW)”?
Answer: kcat (Sirt5 [2]): 0.014 ± 0.001 s⁻¹; Km (Sirt5 [2]): 8.7 ± 1.3 µM

B1: Sirt5 (Homo sapiens) (protein)
chain: SSSMADFRKFFAKAKHIVIISGAGVSAESGVPTFRGAGGYWRKWQAQDLATPLAFAHNPSRVWEFYHYRREVMGSKEPNAGHRAIAECETRLGKQGRRVVVITQNIDELHRKAGTKNLLEIHGSLFKTRCTSCGVVAENYKSPICPALSGKGAPEPGTQDASIPVEKLPRCEEAGCGGLLRPHVVWFGENLDPAILEEVDRELAHCDLCLVVGTSSVVYPAAMFAPQVAARGVPVAEFNTETTPATNRFRFHFQGPCGTTLPEALACHENETVS
notes: made in house
Question: Which Km [4] does the source give for B1 here?
Answer: The Km was 6.1 ± 2.8 µM.

Question: What about the kcat [4] of the same molecule?
Answer: Its kcat is 0.037 ± 0.003 s⁻¹.

Question: What about the kcat/Km [4] of the same molecule?
Answer: The kcat/Km was 6100 M⁻¹ s⁻¹.

Question: And the Km [5]?
Answer: The Km was 5.8 ± 2.7 µM.

Question: What about the kcat [5] of the same molecule?
Answer: The kcat was 0.025 ± 0.002 s⁻¹.

Question: What about the kcat/Km [5] of the same molecule?
Answer: The kcat/Km was 4300 M⁻¹ s⁻¹.
